Data reported in patent publication US20140162289A1.

Biological target: ADRB2-luc234R233 (β2 adrenergic receptor fused at its C terminus to permuted firefly luciferase with R at the X position of the TEV cleavage site) (firefly) (UniProt P07550)
Assay: cell-based or functional assay

Sequence of Human β arrestin 2-TEV fusion (tobacco etch virus protease A fused to the C terminus of β arrestin 2) (P32121 1-409, tags or fused parts left off): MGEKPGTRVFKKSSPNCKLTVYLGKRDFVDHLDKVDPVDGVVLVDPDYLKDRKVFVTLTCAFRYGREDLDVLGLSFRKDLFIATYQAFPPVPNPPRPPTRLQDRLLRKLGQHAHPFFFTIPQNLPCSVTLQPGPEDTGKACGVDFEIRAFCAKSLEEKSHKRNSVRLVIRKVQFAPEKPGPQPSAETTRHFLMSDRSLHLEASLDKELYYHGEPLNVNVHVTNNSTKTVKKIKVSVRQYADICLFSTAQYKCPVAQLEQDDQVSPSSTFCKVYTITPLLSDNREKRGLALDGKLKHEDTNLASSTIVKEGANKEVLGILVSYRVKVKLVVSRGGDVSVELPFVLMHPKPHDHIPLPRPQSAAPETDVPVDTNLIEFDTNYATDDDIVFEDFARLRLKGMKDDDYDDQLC

Human β arrestin 2-TEV fusion (tobacco etch virus protease A fused to the C terminus of β arrestin 2) (from UniProt P32121 1-409; P04517 2040-2279)
> 3 fold: relative luminescence (reconstituted permuted luciferase) in co-transfected CHO-K1 cells, with or without 10 µM isoproterenol, 2 hours | relative luminescence in co-transfected CHO-K1 cells, with or without 10 µM isoproterenol, 2 hours | relative luminescence units in cotransfected CHO-K1 cells, with or without 10 µM ADRB2 agonist, 2 hours
